According to US20220041650A1:

Assays:
[1] = target: CH505TF4.1 SOSIP Trimer (HV1301189, CH505TF.6R.SOSIP.664.v4.1) (HIV-1); experiment: SPR antibody binding; drug substance of the 200 L scale run 1
[2] = target: CH505TF4.1 SOSIP Trimer (HV1301189, CH505TF.6R.SOSIP.664.v4.1) (HIV-1); experiment: SPR antibody binding; drug substance of the 50 L scale run
[3] = target: CH505TF4.1 SOSIP Trimer (HV1301189, CH505TF.6R.SOSIP.664.v4.1) (HIV-1); experiment: SPR antibody binding; drug substance of the 200 L scale run 2

Substance	Kd [1]	Kd [2]	Kd [3]
PGT145 (antibody)	11.3 nM	11 nM	11.7 nM
PGT151 (antibody)	16 nM	17.5 nM	13.1 nM
